Experimental data from patent publication US20230114801A1 (SYSTIMMUNE, published 2023).

T1: CD19 (UniProt P15391 20-291, limits assumed)
T1 sequence (looked up): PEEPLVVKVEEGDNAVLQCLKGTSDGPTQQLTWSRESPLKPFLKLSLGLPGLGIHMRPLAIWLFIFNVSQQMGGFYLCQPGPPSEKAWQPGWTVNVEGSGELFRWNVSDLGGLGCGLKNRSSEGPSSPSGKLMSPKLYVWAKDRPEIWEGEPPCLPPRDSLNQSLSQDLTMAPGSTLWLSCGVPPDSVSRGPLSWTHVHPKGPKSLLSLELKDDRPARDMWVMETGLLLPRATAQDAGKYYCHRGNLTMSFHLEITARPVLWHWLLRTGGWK

B1: SI-68P19 (other)
chain 1: DVVMTQSPSSLSASVGDRVTISCQASESISSWLAWYQQKPGQAPKLLIYEASKLASGVPSRFSGSGSGTEFTLTISSLEPEDFATYYCQGYFYFISRTYVNSFGGGTKVEIKGGGGSGGGGSGGGGSGGGGSQQLVESGGGLVKPGGSLRLSCAASGFTISTNAMSWVRQAPGKGLEWVGVITGRDITYYASWAKGRFTISKTSKNTVYLQMNSLRAEDTAVYYCARDGGSSAITSNNIWGQGTLVTVSSGGGGSGGGGSQVQLQQSGPGLVKPSETLSITCTVSGFSLTNYGVHWIRQAPGKGLEWLGVIWSGGNTDYNTPFTSRFTITKDNSKNQVYFKLRSVRADDTAIYYCARALTYYDYEFAYWGQGTLVTVSSASTKGPSVFPLAPSSKSTSGGTAALGCLVKDYFPEPVTVSWNSGALTSGVHTFPAVLQSSGLYSLSSVVTVPSSSLGTQTYICNVNHKPSNTKVDKRVEPKSCDKTHTCPPCPAPEAAGGPSVFLFPPKPKDTLMISRTPEVTCVVVDVSHEDPEVKFNWYVDGVEVHNAKTKPREEQYNSTYRVVSVLTVLHQDWLNGKEYKCAVSNKALPAPIEKTISKAKGQPREPQVYTLPPSRDELTKNQVSLSCAVKGFYPSDIAVEWESNGQPENNYKTTPPVLDSDGSFFLVSKLTVDKSRWQQGNVFSCSVMHEALHNHYTQKSLSLSPGGGGGSGGGGSDVVMTQSPSSVSASVGDRVTITCQASQNIRTYLSWYQQKPGKAPKLLIYAAANLASGVPSRFSGSGSGTDFTLTISDLEPGDAATYYCQSTYLGTDYVGGAFGGGTKLTVLGGGGSGGGGSGGGGSGGGGSEVQLVESGGGLVQPGGSLRLSCTASGFTISSYHMQWVRQAPGKGLEYIGTISSGGNVYYASSARGRFTISRPSSKNTVDLQMNSLRAEDTAVYYCARDSGYSDPMWGQGTLVTVSS
chain 2: ENVLTQSPASLSASPGERVTITCSASSSVSYMHWYQQKPGQAPKLWIYDTSKLASGVPSRFSGSGSGNDHTLTISSMEPEDFATYYCFQGSVYPFTFGQGTKVTVLGGGGSGGGGSGGGGSGGGGSQVTLKESGPGLVQPGQTLSLTCAFSGFSLSTSGMGVGWIRQPPGKGLEWLAHIWWDDDKRYNPALKSRLTISKDTSKNQVYLQMNSLDAEDTAVYYCARMELWSYYFDYWGQGTLVTVSSGGGGSGGGGSEIVLTQSPSTLSVSPGERATFSCRASQSIGTNIHWYQQKPGKPPRLLIKYASESISGIPDRFSGSGSGTEFTLTISSVQSEDFAVYYCQQNNNWPTTFGPGTKLTVLRTVAAPSVFIFPPSDEQLKSGTASVVCLLNNFYPREAKVQWKVDNALQSGNSQESVTEQDSKDSTYSLSSTLTLSKADYEKHKVYACEVTHQGLSSPVTKSFNRGECGGDKTHTCPPCPAPEAAGGPSVFLFPPKPKDTLMISRTPEVTCVVVDVSHEDPEVKFNWYVDGVEVHNAKTKPREEQYNSTYRVVSVLTVLHQDWLNGKEYKCAVSNKALPAPIEKTISKAKGQPREPQVYTLPPSRDELTKNQVSLWCLVKGFYPSDIAVEWESNGQPENNYKTTPPVLDSDGSFFLYSKLTVDKSRWQQGNVFSCSVMHEALHNRFTQKSLSLSPGGGGGSGGGGSDIQMTQSPSTLSASVGDRVTITCQASQSISSHLNWYQQKPGKAPKLLIYKASTLASGVPSRFSGSGSGTEFTLTISSLQPDDFATYYCQQGYSWGNVDNVFGGGTKVTVLGGGGSGGGGSGGGGSGGGGSEVQLLESGGGLVQPGGSLSLSCAASGFSFSSGYDMCWVRQAPGKGLEWIACIAAGSAGITYDANWAKGRFTISRDNSKNTLYLQMNSLRAEDTAVYYCARSAFSFDYAMDLWGQGTLVTVSS
notes: penta-miniGNC; D1 αCD3**** (humanized framework 3), D2 αCD19, D3 αEGFR (Fab), D4 α4-1BB, D5 αPD-L1
B2: SI-75X9 (bispecific antibody, human IgG1, kappa, L234A L235A)
chain 1: QVQLQESGGRLVQPGEPLSLTCKTSGIDLSSNAIGWVRQAPGKGLEWIGVIFGSGNTYYASWAKGRFTISRSTSTVYLKMNSLRSEDTAIYYCARGGYSSDIWGQGTLVTVSSASTKGPSVFPLAPSSKSTSGGTAALGCLVKDYFPEPVTVSWNSGALTSGVHTFPAVLQSSGLYSLSSVVTVPSSSLGTQTYICNVNHKPSNTKVDKRVEPKSCDKTHTCPPCPAPEAAGGPSVFLFPPKPKDTLMISRTPEVTCVVVDVSHEDPEVKFNWYVDGVEVHNAKTKPREEQYNSTYRVVSVLTVLHQDWLNGKEYKCAVSNKALPAPIEKTISKAKGQPREPQVYTLPPSRDELTKNQVSLSCAVKGFYPSDIAVEWESNGQPENNYKTTPPVLDSDGSFFLVSKLTVDKSRWQQGNVFSCSVMHEALHNHYTQKSLSLSPG
chain 2: QVQLVQSGGGLVQAGGSLSLSCAFSGRTFSMYTMGWFRQAPGKEREFVAANRGRGLSPDIADSVNGRFTISRDNAKNTLYLQMDSLKPEDTAVYYCAADLQYGSSWPQRSSAEYDYWGQGTTVTVSSGGGGSGGGGSDPQLTQSPSSLSATVGQRVTINCQSSQSVAKNNNLAWFQQKPGKPPKLLIYSASTLAAGVPSRFSGSGSGTQFTLTITRVQSEDFATYYCSARDSGNIQSFGGGTRVEIKRTVAAPSVFIFPPSDEQLKSGTASVVCLLNNFYPREAKVQWKVDNALQSGNSQESVTEQDSKDSTYSLSSTLTLSKADYEKHKVYACEVTHQGLSSPVTKSFNRGECGGDKTHTCPPCPAPEAAGGPSVFLFPPKPKDTLMISRTPEVTCVVVDVSHEDPEVKFNWYVDGVEVHNAKTKPREEQYNSTYRVVSVLTVLHQDWLNGKEYKCAVSNKALPAPIEKTISKAKGQPREPQVYTLPPSRDELTKNQVSLWCLVKGFYPSDIAVEWESNGQPENNYKTTPPVLDSDGSFFLYSKLTVDKSRWQQGNVFSCSVMHEALHNRFTQKSLSLSPG
notes: bi-miniGNC; D2 αHER3 VHH, D3 αCD3* (Fab)
B3: SI-75X15 (bispecific antibody, human IgG1, kappa, L234A L235A)
chain 1: B2 chain 1
chain 2: DPQLTQSPSSLSATVGQRVTINCQSSQSVAKNNNLAWFQQKPGKPPKLLIYSASTLAAGVPSRFSGSGSGTQFTLTITRVQSEDFATYYCSARDSGNIQSFGGGTRVEIKRTVAAPSVFIFPPSDEQLKSGTASVVCLLNNFYPREAKVQWKVDNALQSGNSQESVTEQDSKDSTYSLSSTLTLSKADYEKHKVYACEVTHQGLSSPVTKSFNRGECGGDKTHTCPPCPAPEAAGGPSVFLFPPKPKDTLMISRTPEVTCVVVDVSHEDPEVKFNWYVDGVEVHNAKTKPREEQYNSTYRVVSVLTVLHQDWLNGKEYKCAVSNKALPAPIEKTISKAKGQPREPQVYTLPPSRDELTKNQVSLWCLVKGFYPSDIAVEWESNGQPENNYKTTPPVLDSDGSFFLYSKLTVDKSRWQQGNVFSCSVMHEALHNRFTQKSLSLSPGGGGGSGGGGSQVQLVQSGGGLVQAGGSLSLSCAFSGRTFSMYTMGWFRQAPGKEREFVAANRGRGLSPDIADSVNGRFTISRDNAKNTLYLQMDSLKPEDTAVYYCAADLQYGSSWPQRSSAEYDYWGQGTTVTVSS
notes: bi-miniGNC; D3 αCD3* (Fab), D5 αHER3 VHH

Legend:
human CD3 [1] = target: T2, human CD3 (human, UniProt P07766 23-126; P04234 22-105); experiment: BLI (Octet), binder on AHC sensor, His-tagged human CD3 (series from 200 nM or single 100 nM), 1:1 fit
T2 construct: also called His-tagged human CD3; human CD3 (Acro CDD-H52W1)

human 4-1BB = target: T3, human 4-1BB (human, UniProt Q07011 24-186, limits assumed); experiment: BLI (Octet), binder on AHC sensor; antigen conditions not stated
T3 construct: Soluble antigen in Octet; construct not described

CD19 = target: T1, CD19; experiment: as above
human PD-L1 = target: T4, human PD-L1 (human, UniProt Q9NZQ7 19-238); experiment: as above
T4 construct: Soluble antigen in Octet; bought; also called human PD-L1 (Acro PD1-H5229)

human HER3 = target: T5, human HER3 (human, UniProt P21860 20-643); experiment: BLI (Octet), binder on AHC sensor, 200 nM human HER3, 1:1 fit
T5 construct: Soluble antigen in Octet; bought; also called human HER3 (Acro ER3-H5223)

human CD3 [2] = target: T2, human CD3; experiment: BLI (Octet), binder on AHC sensor, 100 nM human CD3, 1:1 fit

Row | Binder | Kd (human CD3 [1]) | Kd (human 4-1BB) | Kd (CD19) | Kd (human PD-L1) | Kd (human HER3) | Kd (human CD3 [2])
1 | B1 | 0.0167 µM | 0.0212 µM | 0.00344 µM | 0.0007 µM |  | 
2 | B2 |  |  |  |  | 0.00386 µM | 0.0842 µM
3 | B3 |  |  |  |  | 0.0137 µM | 0.0381 µM
